Test results published in article PMC5460017, “Regulated membrane remodeling by Mic60 controls formation of mitochondrial crista junctions” (Nature Communications, 2017).
Bridge positions count the residues as written; N and C are the ends. Ends that are not written are not given here.

T1: Mic60solΔLBS1 (Chaetomium thermophilum Mic60sol with an internal deletion of LBS1) (Chaetomium thermophilum)
T1 chain: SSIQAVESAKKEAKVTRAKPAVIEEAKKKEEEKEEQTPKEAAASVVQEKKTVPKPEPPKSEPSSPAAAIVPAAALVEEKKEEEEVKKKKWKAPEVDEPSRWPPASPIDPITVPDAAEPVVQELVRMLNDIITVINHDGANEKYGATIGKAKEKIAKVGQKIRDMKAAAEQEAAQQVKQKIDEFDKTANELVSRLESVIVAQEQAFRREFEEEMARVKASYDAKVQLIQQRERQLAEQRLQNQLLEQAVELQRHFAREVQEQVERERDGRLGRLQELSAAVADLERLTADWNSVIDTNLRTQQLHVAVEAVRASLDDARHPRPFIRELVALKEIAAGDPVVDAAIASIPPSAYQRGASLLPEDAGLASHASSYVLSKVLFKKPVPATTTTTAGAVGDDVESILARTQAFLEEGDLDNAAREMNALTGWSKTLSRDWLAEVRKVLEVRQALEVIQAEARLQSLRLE

B1: Mic60solΔLBS1 (Chaetomium thermophilum Mic60sol with an internal deletion of LBS1) (domain or fragment)
chain: T1 chain
modifications: His6 tag removed; outer limits 208-691 printed; LBS1 = 563-582 deduced from the printed truncations ending at 562 (no LBS) and 582 (LBS1 kept); check residues lie in the deleted segment and only …

Legend:
[1] = target: T1, Mic60solΔLBS1 (Chaetomium thermophilum …); experiment: native gel or EMSA; blue native (BN)-PAGE of purified Mic60 constructs; conditions: both partners purified
[2] = target: T2, Mic60sol (Chaetomium thermophilum Mic60, residues 208–691) (Chaetomium thermophilum); experiment: ITC; about 450 μM Mic19 construct in the syringe titrated into about 40 μM Mic60 construct in the cell; 10 °C; 20 mM HEPES/NaOH pH 7.5, 150 mM NaCl; untagged proteins; conditions: both partners purified
T2 construct: Mic60 of Chaetomium thermophilum, UniProt G0SHY5, residues 208-691; codon-optimized synthetic cDNA in a modified pET28a; source: E. coli BL21 DE3, purified (Ni-NTA, His6 tag cleaved with PreScission protease, size-exclusion chromatography); not shown: His6, N-terminal, cleaved

| Binder | stoichiometry N [1] | Kd [2] | stoichiometry N [2] |
| --- | --- | --- | --- |
| B1 | 2 |  |  |
| RPLPESVEKARSEVVRCLREHDRRPLNCWQEVEAFKEEVRKLEKGWVDK (domain or fragment, disulfide 17-28) [isolated CHCH domain of Mic19 (Chaetomium thermophilum)] |  | 390 nM | 0.77 ± 0.01 |
